Data as given in article PMC5616090.

Assays:
Q99816 [1] = assay: differential scanning calorimetry; details: other: differential scanning calorimetry
Q99816 [2] = assay: circular dichroism thermal unfolding; details: other: circular dichroism thermal unfolding
[3] = target: Tumor susceptibility gene-101 coiled coil domain (TSG101cc), residues 229-304 (human) (UniProt Q99816); assay: differential scanning calorimetry
[4] = target: Tumor susceptibility gene-101 coiled coil domain (TSG101cc), residues 229-304 (human) (UniProt Q99816); assay: circular dichroism thermal unfolding

Sequence of Tumor susceptibility gene-101 coiled coil domain (TSG101cc), residues 229-304 (Q99816 2-390): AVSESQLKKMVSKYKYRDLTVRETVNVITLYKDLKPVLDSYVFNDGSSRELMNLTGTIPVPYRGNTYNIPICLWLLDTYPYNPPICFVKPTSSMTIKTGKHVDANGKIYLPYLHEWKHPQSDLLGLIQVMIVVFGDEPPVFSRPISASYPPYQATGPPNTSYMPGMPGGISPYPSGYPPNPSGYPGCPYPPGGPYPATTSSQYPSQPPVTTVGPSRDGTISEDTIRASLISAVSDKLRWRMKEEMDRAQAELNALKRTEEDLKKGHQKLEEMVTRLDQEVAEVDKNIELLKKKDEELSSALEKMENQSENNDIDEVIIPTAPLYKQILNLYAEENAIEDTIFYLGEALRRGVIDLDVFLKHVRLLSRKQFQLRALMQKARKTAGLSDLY

Substance	dH (unfolding and dissociation of the tetramer, per mol of monomer) (Q99816 [1])	dH (unfolding and dissociation of the tetramer, per mol of monomer) (Q99816 [2])	stoichiometry N [3]	stoichiometry N [4]
Tumor susceptibility gene-101 coiled coil domain (TSG101cc), residues 229-304	45.6 kcal/mol	56.5 kcal/mol		
Tumor susceptibility gene-101 coiled coil domain (TSG101cc), residues 229-304 (from UniProt Q99816 229-304) (domain or fragment)			4	4
